Test results as given in the DeepSol protein solubility set.

Test: soluble on expression in E. coli; label from the status in PepcDB or PDB records

| Sequence | soluble on expression in E. coli |
| --- | --- |
| MAHHHHHHMSSDYSRVCAAEKASESHPPGYSRDALETELREGFRKQQQQVNKNRQVEQMALAKGLGESATTSLKDGFYIPHKVLPPLKPEEKKLFERIDIMKWCGRAGRKLEDSAVAPPPTLGEVPAEHQPMQVQEHQASTEADAEDALSTSVSSTASSLAALKDNSSEDVRHLLHQLRSTSRATSSLRDARAEVDDNIQAVEEALLRQSSPLSFEDLLDTAARLLAAMERGELTEDVVVPRGADVSTEKDEGSPGSPADSAEAPLSASGSTTRVLHGAVEVETYTRKHLLPRAYQVVAIAHTAEWILQYTMAYLRTTVAVNQDEAFTRLTLLARCVRLLGDIENFSSILLSLETKCEEYAGFAALKDTAEKHLGTLLDDVETSLDAILSAPFPSRRSRLLLLEGGIQKKLQRALLFLNEIDYSWTPHVRFHWAWKVQLLSASFHRIHGLISRKHMQCSMGFVDDSLYERVADTRITGRYMGASPVQPKVLRAQQVEYEKITEGLTFQQIGMSIKGVASLLIGEQLCMGARYILCQSTKQFDPVWGFHMDEISTAPTQEELSAMAAKIAVHAKEQLTARPTIARKEHSSSTFLTQM | not soluble |
| MAHHHHHHMSSEHWVFFGLPPFFTEQHSSATLDRQCTLWSNLLLDHAIYHAQRTAGGDTNALLRFYTTQSDIFYNPAINKRLSPEGAHTMLQSLVARHPNHVVIVSDGGPRDFSVLVCTTEDGFKGMEETLLRYILDHGEVQTTAMLSKKGTVMTFDELASGAALGYGQTRSAYLARFSSAAVPVADVGRLSEEQAIRMYLHALNRRPVSAMRPFKVTLFNLDGTATQPYQGVKFGGE | soluble |
| MAHHHHHHMSSESYAIGQEELVYDRMFRVMRTVGEMMRDRKYQVPSSIIPETVGQFCEQYVDREGRRIYRERMTVPCERVGGTHRSRAMVFFASELGMEGMKGYCQTAMDANCERVIIVTHGKVNATVKRYVDCINRSGTGQKVQLFDEDDLVVNITHHELVPKHTQLEDEEVKEMLEAHSLELNMLPRILSTDPVAAYLGLERGRVVRIERKSVSAGFYVTYRQVV | not soluble |
| MAHHHHHHMSSHQILITAPEVYSKRFAQALEARSLIPMAVPVIETIATPDTADMRALLEQDLNGIDYIAFCSRCAVDSLSAALDHRYGGGGESVSERAGSAPAVNEDRRATAVVKVLAKCALAAIGKDADYVFERLRIRTTICPDEPSPAGIAAKLAESGRAEGRTIAVLAPCVEGFTEPDVVPRFVDQLKGMGMKVVRVDAYMTRPVSEEAVSAAVTALKNGSVRGVAFTSAGEIAVLLRRSPQCLMNIDVACFGPYTAGFAAKHGVKVSCVAKDFRSFDGFAATIEQHYASR | soluble |
| MAHHHHHHMSTKYIIEHLDELEEWCIHEYIHICETVRDENVIFTKFCENFSELTNGKYKPACYEKSIDELKNELLSGNICLLDMKAKNKLTCNDKNKIDFLLFGGILGNVPSDDRTSILRNFNFPISRNLGPIQMTTNTAVLVCYIILNDNVELENIPYVDDPEIFLKNNKESITLPFRFVSKYYYTKCEQDKNVPVLPEKFKEYLIKLGDQQFDDMSSFLENEDN | not soluble |
| MAHHHHHHMSTRKEPPKVLKGAAYTECSPISDVSHHKASASKAFLENHYRGMLRDTRSGNTARPVGPRPREPCVDDFVLVKRIGKGAFGEVYLCYKKYDNDKQLYALKRMRKTDMIRKKQISHVRSEKDVMAEAASTNPWVVKLYLSFQDEQYLYMVMEYMPGGDMISWLCIKQRFDVESTRFYIAELCAAVASVHDMFFVHRDIKPDNILLDAKGHIKLTDFGLSKRFAKVGEELLDLEEGNDALCSSNSSANLSNTCGSTCQGPNSVPVVSPHNPHSPTANYNSLTPAGSHASAHPQARRIFESIVGSPGYIAPEILLRQRYGVNCDWWSVGVIMYEMLYGIPPFFSSDTSSTCHKITHWREYLTYPSDRGVPPEATDLLRRLMCDQRDRLDFQGVKEHPFFNDIDWERLRETPPAFVPELSDPLDTHYFPEVEDNTPQQHHQRPEERNAVREVDPRGVIFADYKFNLKR | soluble |
| MAHHHHHHMSTTNPTGETTEWDDLQRKYGNLPPLQKEVKEEEIYLNKLEKLEGVNPLEKKNLHELTLLEENCVDEDYLKIIEKHKANRIKEINRSRALDVFGTVYEISKDNFLTEVNEASKRNPLGEHGGRSMESTRGDEDLEEDEEQGVAASSTEGTEGTHVVIHLYSDNVLACKVINSILIQMARKHKYVKFTKGVYNRIVENYPESKLPTLLIYYNGTCIHQICNLLNNIKGGMNNLSLKTFERLMEKYNILRYPSSWMNSRQSVSDHSVNSSDVDSEEGSRYAEKGTRVRTHKQYTSFNMFDSKYTSRDYSSDEDRELKSRGYASSMLDKKVSRNEL | not soluble |
| MAHHHHHHMSVEELFATARKYSDSVVGGPAWDRLFSLRLTNEEILCIAKKMILSQPTFLMEVNGTKLEEIPPLAVAVRIEAFTNVPKSEGESGGVEKAVALEEKRTAAQQREVLRELASVRAQYRAVLREGNDLMACIDEEERRWNKIEMHREEEQRKRKEHPAAPPSEHDEHIRKNVCALETLQQKREKEEESAQATARTVMAEKKRKKTGKGSRGGGGSEKKFASTSNVTSKEAEIRNVRAHNTALRRLLEKLANELKEEEQTMENLSIDLRGFMSDINKLEKAKLLLTVEHGMLMNTTARLQQSLRDQKEKLRQEQEAAAAEQREISRRLLVQQERTKKSLHEKNGTTELLHRLKTNLSK | not soluble |
| MAHHHHHHMSWLTPSGSSYFLSKVVVNSAPCAPLHLLVMHRCRVAFPCVNYRPLLWRGMLQVPSRPTICDNSLKVQLRHSRISSFKQEGYYRFARAKDIHVDESCFTLLTARGGGPGGQGSNSSSNKVEMRVNMASLSEYFDEELIGNIKANECGKALTSDETQLIISSHEHRSMYQNKEECIRRLQQMIHVASWVPPVEANPIKKPSHIVSERKNERRKKSAVKKMRQTARKGLW | not soluble |
| MAHHHHHHMTGSNGNDEPFKREMRTVKVPHHRFPALKKVWMDVYTPIVEQCKLEIRMNLRGRSVELRTCPATVEAAGNEGSKALLQKAEDFVKAVVAGFDVKDAVALLRMDDVYIEGFEVKDVRANLQGDNLSRCIGRMSGSHGKTKHTIENVTRTRIVIADTHICIMGTTQNIRVARDALCDLIRGSPATKVYTRVRAVMNRVNDTF | soluble |
| MAHHHHHHMTHMGRAADGYQRLGNNYPQVTPSSHFAAASPDPVLATPIQTRPLQGNPFHPLLWNGSATSSTGAAGVQASLSRKSRTRLTSGVTAGSSSGPLSSTLSLSTPLSSCASAAASGEGRFQRRVSRDRFGACSTPTSSSTTAQVLQLQRPAQSPMPPLSSSPPASVGLTAAAARGAVTPANLGRERKVAAVNYNALFQQELQQQQRQGSDTGAWPTPSPSPPSGALQYAQLPPSASADVHGTGAHSGSGEGVSEALSSSVTASSVQAGTAEGPLPPDVRRIIAQSCTSSSSSSGADTNAIIDAAEQQARRLISTGRRVKVYREELTTAEEERNDLSAAVEERRLVRSVLQSEVDDINARIQALLQERALAEAQLHAQDDAAAREARKLTEAQDRVTVLRKTIEGIVEETSAARLMLRQIVPSLHIENYY | not soluble |
| MAHHHHHHMTHYSRKPQVSSKSAKAKVSDLRCHYKNTFETANVINGMPLRKAQQLYRQVLAKTRCIPFKRYNGKIGRTAQAKEWGQTKGRWPRKSVVAMMSLLKNAEANAIEKGLDPNQMVIKHVQVDQAARMRRRTYRAHGRITPYMCSPCHVQLFMSEKKERVPAPKSAPKK | not soluble |
| MAHHHHHHMTRPRLTSAPRGSALKEAISAHQALRNAVAQEQSALDDELKKNEQILAEHEQLMRDWSCDKEGVLATIQKMKEKIAENESKTTEARAEVKQNEEIVKRLHARNEEYEPRLEASAIEIAERLKKREEEEKEMREQLLTFQIACQEREQQYRDQIHKLEETNAQEAVDHQQKVQQLRSKIAEVEATMEEERRAWVVETEMRKQQRLIERHKFFTEEAEEARKGKEACAAIMKEASALRMDSNLLTSLDDLLCC | not soluble |
| MAHHHHHHMTSVYNFKTITVVPTYKDFMDIVLSKTQRKTPTVVHKGYHISRIRQFYMRKVKFTQKTINEKLTYILQEFPRMDDIHPFYGDLMHVLYDRDHYKVALGQVGAVRHMVDNIGRDYVRLLKYGDSLYRCKQLKRAALGRMATACKKLNSALAYLEKVRQHMSRLPSIDPNARTLLVTGFPNVGKSSFMNKVTRADVEVQPYAFTTKSLFVGHTDYKYTTWQVIDTPGILDHSLEERNVIEMQAITALAHLRACILFFMDLSGQCGYSIEQQVSLFKSVGPLFTGKPVVVVFNKCDVCTIDDVSSAEQELIMDAIQEADAKWITTSTLTDVGVGDLKTVACDMLLAHRSEQKEGSGRYQAIQNRLYCATPQQRDELERPAFVPASVLQARATGEPPRQRRKTERDYEWENGGPGQYQKNERKTWDLENPEWVDDIIPDIMDGHNIYDNIDPDIHQRLLELEAEEEARLEDLELEASRKHEQYTLDNDTIEAVKFIKDKIKVLKMERAMKNPAIRRTHSQAMAIDKFNKRTGSQDARAKSIADGSGEVPTRKRGRSMSVAQEALIRDRSGSAHVSTKTTRSISGASASRERSMSVNRGDGYRDVNEKLRAVKLSKVKARPLARQARKGEGDHHIPNLRPMHLFTGKVKSNGARDRR | not soluble |
| MAHHHHHHMTTPSSPAHPAAHLCDVTGDTAAAAAAGASGMMADTARMLSPRPSVTRTAAKTSGGPVQVALSQSCPHPHQQHQQHHQHHQHQQHHQHHQHQQHHQHHQHQQHHQHQQHQQHQQPCLGGLLDPFFLTEIDENVQAFSGTAATSGSHTSLSGDGGSPSAKDAALCSPCVECVPPARGKTVRKSRSACELRLECLLSTSMGSDITKDEADDSKRKRRQPSSFPSSSRRDTAGCFSSVEVMGPTDEVAAADEAIATTAATAADAEAGVKSRDPKRRSLLPTWVTARTSTVTRAGAPPTDSGETSRTANGCLASPRSFSLSHSKPSSGSRDTSEGSHVLDCEATLLPSESVGVVASTHSSTVSSYASEAQGRAAEEATNCATAGGATVGSKMTLLVSLIMRCTPSRRGPPHSASPTEDGAADAERLPPLELYPPLVSPSSIEEASCGVGYDVPSAHHDDMYAMKDITVAVKEDVNQRRGALAKEPTLPASTASRRTQHTKWSMHPSPVSAWLLGSSAVGASLSTALWRAALRSRPAMHTPCSCVSARAEQHSVQVLSRVLANGSAVSTKVLAMRSWAEFERASVSFPSTWSASVSAHLSAVPPSLTTDSTTLRGPSMLHLTLPPLPDQTSVGPASIAYINRAPSRPAATAEEVVARQPCDVWRLARCYAHFERAVEQRGEDGVWSARGISSLATWDSVKLVVAAGVASRDAESSTDEGCEDGGAWLLPSFTLDVVPDTLDTPSPASPQVTSTFPFSPVVSVLRAEKEEEVFTSAVMWALEMMTGVR | soluble |
| MAHHHHHHMTTVLNRRFDVLCHSGTCPSYLIDVLSLLVAHANDTELFKTELRKGDGGEFGAAATGAGSAHATSSTGPASRTDRAVGEARERQAADRRTQLMYKQVEDPEVLDDALRASHETVLIAAERSLQTYTEDLKHINDIAMATSAKQLRAMRVETQQQMEAFRDRVCGSVVAQTKEELEVMRSELAASVRADVSDMVRQLHQVSFSTQQQLQQLTSSYTDFVAQAHDALTLAPLADAYEAVKTVEYMQEQLKCIEAAATTRSDVETLEERLKDLESIVTTLGSVAKTPDVGAAAAAREGFSVNVPPPLSLSQQKPVLSNRSASHRSQTPKCTSPLPLHLHVSRSASAKGRPSSPPPASPGPPAQRTLAERLGVAVEAAEDGVVLAEVLPGSAAAAHRLGVGHIISHVGRTAVKTPAAFEEALRGIEGQAVKITAYDPFNGRVRVLTAQPL | not soluble |
| MAHHHHHHMTVNNSNNNNNGERLGSGTARLFVGQLNFDATEHDLRQIFSFYGHVIHTNVLRDADGKSTGSGFVTFRVTDEADFAIMSMHDRYNMGREKPLQVSYCRRSERISPFGYEHAMKLREKNTTNPPPPQPTSS | soluble |
